B1: Speckle-type POZ protein (Homo sapiens), O43791 (parent)
chain: MSRVPSPPPPAEMSSGPVAESWCYTQIKVVKFSYMWTINNFSFCREEMGEVIKSSTFSSGANDKLKWCLRVNPKGLDEESKDYLSLYLLLVSCPKSEVRAKFKFSILNAKGEETKAMESQRAYRFVQGKDWGFKKFIRRDFLLDEANGLLPDDKLTLFCEVSVVQDSVNISGQNTMNMVKVPECRLADELGGLWENSRFTDCCLCVAGQEFQAHKAILAARSPVFSAMFEHEMEESKKNRVEINDVEPEVFKEMMCFIYTGKAPNLDKMADDLLAAADKYALERLKVMCEDALCSNLSVENAAEILILADLHSADQLKTQAVDFINYHASDVLETSGWKSMVVSHPHLVAEAYRSLASAQCPFLGPPRKRLKQS
partner: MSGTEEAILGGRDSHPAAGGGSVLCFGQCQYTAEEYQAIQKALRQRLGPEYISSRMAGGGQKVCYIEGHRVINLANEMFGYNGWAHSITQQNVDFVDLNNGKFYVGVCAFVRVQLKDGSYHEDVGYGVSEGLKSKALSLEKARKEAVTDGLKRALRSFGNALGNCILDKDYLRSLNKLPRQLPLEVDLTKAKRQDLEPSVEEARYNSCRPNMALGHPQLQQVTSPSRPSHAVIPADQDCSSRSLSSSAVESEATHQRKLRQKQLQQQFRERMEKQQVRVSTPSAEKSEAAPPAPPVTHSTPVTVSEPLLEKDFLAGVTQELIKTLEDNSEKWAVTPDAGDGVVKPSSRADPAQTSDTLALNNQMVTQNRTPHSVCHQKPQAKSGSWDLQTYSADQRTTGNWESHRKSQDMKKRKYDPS
B2: Speckle-type POZ protein (Homo sapiens), O43791 (parent)
chain: B1 chain
partner: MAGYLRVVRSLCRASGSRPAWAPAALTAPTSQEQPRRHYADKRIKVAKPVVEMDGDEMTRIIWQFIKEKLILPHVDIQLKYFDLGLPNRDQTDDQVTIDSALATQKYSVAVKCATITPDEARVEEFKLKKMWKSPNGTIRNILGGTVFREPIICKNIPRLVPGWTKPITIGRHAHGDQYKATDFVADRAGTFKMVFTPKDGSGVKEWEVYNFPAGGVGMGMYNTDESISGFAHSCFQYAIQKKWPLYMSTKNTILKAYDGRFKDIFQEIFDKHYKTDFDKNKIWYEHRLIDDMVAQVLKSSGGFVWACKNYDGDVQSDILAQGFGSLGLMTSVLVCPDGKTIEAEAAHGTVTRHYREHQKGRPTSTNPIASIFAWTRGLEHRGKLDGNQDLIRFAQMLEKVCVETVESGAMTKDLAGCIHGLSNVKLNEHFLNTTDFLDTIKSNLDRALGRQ
B3: Speckle-type POZ protein (Homo sapiens), O43791 (parent)
chain: B1 chain
partner: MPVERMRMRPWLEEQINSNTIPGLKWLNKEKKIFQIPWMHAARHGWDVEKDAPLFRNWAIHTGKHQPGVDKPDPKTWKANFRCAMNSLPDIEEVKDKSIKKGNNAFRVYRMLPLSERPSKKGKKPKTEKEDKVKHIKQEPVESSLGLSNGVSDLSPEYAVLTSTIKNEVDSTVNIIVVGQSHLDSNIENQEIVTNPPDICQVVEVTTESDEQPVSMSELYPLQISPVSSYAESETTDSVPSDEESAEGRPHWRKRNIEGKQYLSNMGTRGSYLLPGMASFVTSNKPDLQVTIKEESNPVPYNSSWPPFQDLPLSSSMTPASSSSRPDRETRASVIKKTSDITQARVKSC
B4: Speckle-type POZ protein (Homo sapiens), O43791 (parent)
chain: B1 chain
partner: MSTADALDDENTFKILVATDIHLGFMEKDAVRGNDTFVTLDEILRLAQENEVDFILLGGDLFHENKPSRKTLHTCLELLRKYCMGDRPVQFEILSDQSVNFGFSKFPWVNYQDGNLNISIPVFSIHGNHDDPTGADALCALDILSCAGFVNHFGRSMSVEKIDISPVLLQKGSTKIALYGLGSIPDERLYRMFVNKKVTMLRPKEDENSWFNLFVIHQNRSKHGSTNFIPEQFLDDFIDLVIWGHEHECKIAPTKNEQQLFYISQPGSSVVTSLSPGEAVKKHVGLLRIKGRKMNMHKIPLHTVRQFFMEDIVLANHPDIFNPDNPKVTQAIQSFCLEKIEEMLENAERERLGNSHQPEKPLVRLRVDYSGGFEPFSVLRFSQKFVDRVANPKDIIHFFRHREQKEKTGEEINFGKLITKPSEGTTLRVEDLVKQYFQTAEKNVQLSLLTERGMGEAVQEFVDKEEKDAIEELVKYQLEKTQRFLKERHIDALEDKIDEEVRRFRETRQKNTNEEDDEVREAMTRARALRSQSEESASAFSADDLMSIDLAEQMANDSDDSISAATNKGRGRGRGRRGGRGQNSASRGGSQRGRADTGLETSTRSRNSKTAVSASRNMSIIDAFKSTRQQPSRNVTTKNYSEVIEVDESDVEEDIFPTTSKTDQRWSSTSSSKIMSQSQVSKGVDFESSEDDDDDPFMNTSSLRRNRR
B5: Speckle-type POZ protein (Homo sapiens), O43791 (parent)
chain: B1 chain
partner: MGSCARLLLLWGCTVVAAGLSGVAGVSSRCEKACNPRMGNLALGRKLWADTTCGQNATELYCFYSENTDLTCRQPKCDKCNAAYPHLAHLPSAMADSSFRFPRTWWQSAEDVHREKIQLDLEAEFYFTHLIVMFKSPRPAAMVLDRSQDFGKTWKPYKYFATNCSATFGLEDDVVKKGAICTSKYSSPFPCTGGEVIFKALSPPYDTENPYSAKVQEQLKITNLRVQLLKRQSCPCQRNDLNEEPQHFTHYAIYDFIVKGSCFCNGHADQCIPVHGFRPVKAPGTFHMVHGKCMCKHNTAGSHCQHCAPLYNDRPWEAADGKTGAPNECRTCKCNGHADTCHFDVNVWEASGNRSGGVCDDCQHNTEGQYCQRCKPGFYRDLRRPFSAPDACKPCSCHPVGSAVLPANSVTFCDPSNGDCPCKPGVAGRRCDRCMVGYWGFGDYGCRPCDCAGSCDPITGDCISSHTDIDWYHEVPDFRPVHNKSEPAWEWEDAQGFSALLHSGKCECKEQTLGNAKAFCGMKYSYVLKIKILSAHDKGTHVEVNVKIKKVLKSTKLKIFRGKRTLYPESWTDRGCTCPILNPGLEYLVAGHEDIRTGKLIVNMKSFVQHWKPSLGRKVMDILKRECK
B6: Speckle-type POZ protein (Homo sapiens), O43791 (parent)
chain: B1 chain
partner: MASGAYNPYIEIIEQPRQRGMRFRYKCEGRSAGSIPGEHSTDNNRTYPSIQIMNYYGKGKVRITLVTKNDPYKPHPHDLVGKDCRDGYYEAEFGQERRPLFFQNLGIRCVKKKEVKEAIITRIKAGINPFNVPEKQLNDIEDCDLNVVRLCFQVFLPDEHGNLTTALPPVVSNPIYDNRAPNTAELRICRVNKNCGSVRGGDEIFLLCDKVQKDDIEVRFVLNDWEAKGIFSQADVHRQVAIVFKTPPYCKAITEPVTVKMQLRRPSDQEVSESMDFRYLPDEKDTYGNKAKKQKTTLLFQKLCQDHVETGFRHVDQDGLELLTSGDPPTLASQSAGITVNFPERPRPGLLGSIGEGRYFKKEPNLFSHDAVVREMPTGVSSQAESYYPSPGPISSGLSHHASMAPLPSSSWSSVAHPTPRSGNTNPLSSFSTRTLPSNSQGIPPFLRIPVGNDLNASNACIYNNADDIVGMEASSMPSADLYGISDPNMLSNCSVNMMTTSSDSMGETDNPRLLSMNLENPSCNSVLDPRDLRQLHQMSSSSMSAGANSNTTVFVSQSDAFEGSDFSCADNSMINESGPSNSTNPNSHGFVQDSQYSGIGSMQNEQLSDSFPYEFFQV
B7: Speckle-type POZ protein (Homo sapiens), O43791 (parent)
chain: B1 chain
partner: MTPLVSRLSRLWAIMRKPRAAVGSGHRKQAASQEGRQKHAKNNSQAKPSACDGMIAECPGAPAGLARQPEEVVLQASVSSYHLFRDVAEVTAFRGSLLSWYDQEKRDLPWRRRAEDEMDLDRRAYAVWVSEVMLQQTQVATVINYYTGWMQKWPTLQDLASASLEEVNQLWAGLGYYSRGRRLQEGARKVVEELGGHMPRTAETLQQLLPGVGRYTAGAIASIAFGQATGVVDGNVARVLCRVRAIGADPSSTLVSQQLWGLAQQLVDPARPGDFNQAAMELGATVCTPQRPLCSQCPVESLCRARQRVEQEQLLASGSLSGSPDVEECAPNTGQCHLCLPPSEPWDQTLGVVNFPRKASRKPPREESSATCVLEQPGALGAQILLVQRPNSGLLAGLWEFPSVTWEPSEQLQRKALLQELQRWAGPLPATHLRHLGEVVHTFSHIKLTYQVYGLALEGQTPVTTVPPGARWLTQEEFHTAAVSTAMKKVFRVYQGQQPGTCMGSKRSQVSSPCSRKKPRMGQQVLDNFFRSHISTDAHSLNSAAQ

Variants of: B1
Conditions: with rad52_human RAD52, P43351

| effect of a mutation on the interaction | Variant |
| --- | --- |
| with no effect | F102C |

Variants of: B2
Conditions: with idhp_human IDH2, P48735

| effect of a mutation on the interaction | Variant |
| --- | --- |
| with no effect | Y87C |

Variants of: B2
Conditions: with idhp_human IDH2, P48735
Remark: another data set of the same source

| effect of a mutation on the interaction | Variant |
| --- | --- |
| with no effect | F102C |

Variants of: B2
Conditions: with idhp_human IDH2, P48735
Remark: another data set of the same source

| effect of a mutation on the interaction | Variant |
| --- | --- |
| with no effect | F133L |

Variants of: B2
Conditions: with idhp_human IDH2, P48735
Remark: another data set of the same source

| effect of a mutation on the interaction | Variant |
| --- | --- |
| with no effect | F133V |

Variants of: B3
Conditions: with irf2_human IRF2, P14316

| effect of a mutation on the interaction | Variant |
| --- | --- |
| with no effect | Y87C |

Variants of: B3
Conditions: with irf2_human IRF2, P14316
Remark: another data set of the same source

| effect of a mutation on the interaction | Variant |
| --- | --- |
| with no effect | F102C |

Variants of: B3
Conditions: with irf2_human IRF2, P14316
Remark: another data set of the same source

| effect of a mutation on the interaction | Variant |
| --- | --- |
| with no effect | F133L |

Variants of: B3
Conditions: with irf2_human IRF2, P14316
Remark: another data set of the same source

| effect of a mutation on the interaction | Variant |
| --- | --- |
| with no effect | F133V |

Variants of: B4
Conditions: with mre11_human MRE11, P49959

| effect of a mutation on the interaction | Variant |
| --- | --- |
| with no effect | F133V |

Variants of: B4
Conditions: with mre11_human MRE11, P49959
Remark: another data set of the same source

| effect of a mutation on the interaction | Variant |
| --- | --- |
| with no effect | F133L |

Variants of: B4
Conditions: with mre11_human MRE11, P49959
Remark: another data set of the same source

| effect of a mutation on the interaction | Variant |
| --- | --- |
| with no effect | F102C |

Variants of: B4
Conditions: with mre11_human MRE11, P49959
Remark: another data set of the same source

| effect of a mutation on the interaction | Variant |
| --- | --- |
| with no effect | Y87C |

Variants of: B5
Conditions: with net4_human NTN4, Q9HB63

| effect of a mutation on the interaction | Variant |
| --- | --- |
| with no effect | Y87C |

Variants of: B5
Conditions: with net4_human NTN4, Q9HB63
Remark: another data set of the same source

| effect of a mutation on the interaction | Variant |
| --- | --- |
| with no effect | F102C |

Variants of: B5
Conditions: with net4_human NTN4, Q9HB63
Remark: another data set of the same source

| effect of a mutation on the interaction | Variant |
| --- | --- |
| with no effect | F133V |

Variants of: B5
Conditions: with net4_human NTN4, Q9HB63
Remark: another data set of the same source

| effect of a mutation on the interaction | Variant |
| --- | --- |
| with no effect | F133L |

Variants of: B6
Conditions: with rel_human REL

| effect of a mutation on the interaction | Variant |
| --- | --- |
| with no effect | F133V |

Variants of: B6
Conditions: with rel_human REL
Remark: another data set of the same source

| effect of a mutation on the interaction | Variant |
| --- | --- |
| causing an interaction | F133L |

Variants of: B6
Conditions: with rel_human REL
Remark: another data set of the same source

| effect of a mutation on the interaction | Variant |
| --- | --- |
| increasing interaction strength | F133L |

Variants of: B6
Conditions: with rel_human REL
Remark: another data set of the same source

| effect of a mutation on the interaction | Variant |
| --- | --- |
| with no effect | F102C |

Variants of: B6
Conditions: with rel_human REL
Remark: another data set of the same source

| effect of a mutation on the interaction | Variant |
| --- | --- |
| with no effect | Y87C |

Variants of: B7
Conditions: with mutyh_human MUTYH

| effect of a mutation on the interaction | Variant |
| --- | --- |
| with no effect | F133L |
